Measured values published in PMC6105727, “Architecture of the native major royal jelly protein 1 oligomer” (Nature Communications, 2018).

Key:
[1] = target: T1, MRJP1 oligomer (MRJP1_4-apisimin4-24-methylenecholesterol8 complex) (Apis mellifera, UniProt O18330+Q8ISL8); test: X-ray crystal structure at […] Å; co-purified ligand identified by GC-MS and NMR; type: binding; settings: co-purified natural ligand; eight per complex (four per asymmetric unit); inner two contact MRJP1 and apisimin, outer two apisimin only; crystals at pH 8.5
T1 construct: native complex purified from royal jelly; mature chains without signal peptides; partly deglycosylated with PNGase F (NAG left at Asn144); modelled MRJP1 23-432 and 28-432, apisimin 37-77 and 36-78; 254 kDa by AUC
T1 sequence (O18330 20-432): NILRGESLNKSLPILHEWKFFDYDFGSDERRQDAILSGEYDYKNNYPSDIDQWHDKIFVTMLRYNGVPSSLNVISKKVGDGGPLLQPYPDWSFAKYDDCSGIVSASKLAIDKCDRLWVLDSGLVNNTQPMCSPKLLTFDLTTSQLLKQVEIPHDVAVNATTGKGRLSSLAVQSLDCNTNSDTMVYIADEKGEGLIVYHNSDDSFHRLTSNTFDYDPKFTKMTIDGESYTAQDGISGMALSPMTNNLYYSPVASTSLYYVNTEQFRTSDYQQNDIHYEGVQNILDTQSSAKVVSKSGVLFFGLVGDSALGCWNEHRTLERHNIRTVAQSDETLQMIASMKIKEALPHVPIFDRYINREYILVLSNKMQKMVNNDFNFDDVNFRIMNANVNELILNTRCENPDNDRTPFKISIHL
T1 sequence (Q8ISL8 25-78): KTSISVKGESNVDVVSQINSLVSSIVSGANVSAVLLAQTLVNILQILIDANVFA

[2] = target: T2, Major royal jelly protein 1 (Apis mellifera, UniProt O18330 20-432, N-acetylglucosamine linked to Asn144 (seen in the crystal after partial deglycosylation); native glycoprotein); test: SEC + other: SAXS; purified native MRJP1 oligomer at near-neutral pH; SAXS in 20 mM sodium phosphate pH 8, 150 mM NaCl, 0.1-10 mg/mL
T2 construct: Major royal jelly protein 1 (MRJP1) of the honeybee Apis mellifera; mature protein without N-terminal signal peptide; modelled residues 23-432 (protomer A) and 28-432 (protomer B); Native protein; occurs in royal jelly as a monomer fraction and as an oligomer with apisimin and 24-methylenecholesterol; also called MRJP1; royalactin (the monomer); source: purified from royal jelly (ultrafiltration, …)
T2 sequence (looked up): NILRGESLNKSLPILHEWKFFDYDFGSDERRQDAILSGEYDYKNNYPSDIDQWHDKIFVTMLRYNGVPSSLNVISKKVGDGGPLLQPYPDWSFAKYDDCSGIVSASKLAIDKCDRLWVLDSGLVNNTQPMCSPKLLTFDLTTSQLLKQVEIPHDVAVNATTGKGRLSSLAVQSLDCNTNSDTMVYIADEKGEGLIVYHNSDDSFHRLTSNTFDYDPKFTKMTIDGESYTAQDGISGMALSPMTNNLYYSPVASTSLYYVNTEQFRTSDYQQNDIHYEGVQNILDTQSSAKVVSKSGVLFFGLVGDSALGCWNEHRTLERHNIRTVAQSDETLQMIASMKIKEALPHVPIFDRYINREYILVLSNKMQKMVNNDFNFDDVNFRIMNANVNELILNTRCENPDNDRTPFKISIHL

[3] = target: T2, Major royal jelly protein 1; test: SEC; gel filtration of royal jelly collected from the nectar of different plants and from different honeybee species (Supplementary Fig. 10A, B)
[4] = target: T2, Major royal jelly protein 1; test: crystal structure; native MRJP1 oligomer from royal jelly, deglycosylated with PNGase F; hanging drop, 0.1 M Tris pH 8.5, 2.0 M ammonium phosphate; 2.65 Å, space group H32
[5] = target: Major royal jelly protein 1 of Apis cerana (Apis cerana); test: SEC; gel filtration of royal jelly collected from the nectar of different plants and from different honeybee species (Supplementary Fig. 10A, B)
[6] = target: the molecule itself; test: crystal structure; native MRJP1 oligomer from royal jelly, deglycosylated with PNGase F; hanging drop, 0.1 M Tris pH 8.5, 2.0 M ammonium phosphate; 2.65 Å, space group H32

**Q.** With `C=C(CC[C@@H](C)[C@H]1CC[C@H]2[C@@H]3CC=C4C[C@@H](O)CC[C@]4(C)[C@H]3CC[C@]12C)C(C)C` [Osl, 24-methylenecholesterol] as the molecule, how does the “X-ray crystal structure at 2.65 Å; co-purified ligand identified by GC-MS and NM” value [1] read?
**A.** The asymmetric unit contains two MRJP1, two apisimin, four unexpected 24-methylenecholesterol (ostreasterol, Osl)

**Q.** For “Major royal jelly protein 1 (from UniProt O18330 20-432) (natural protein)”, which stoichiometry N [2] is on record?
**A.** 4

**Q.** What about the stoichiometry N [3] of the same molecule?
**A.** 4

**Q.** What about the stoichiometry N [4] of the same molecule?
**A.** 4

**Q.** “Major royal jelly protein 1 of Apis cerana (natural protein)” was tested. Which stoichiometry N [5] did it give?
**A.** 4

B1: apisimin (peptide, UniProt Q8ISL8 25-78, looked up)
chain: KTSISVKGESNVDVVSQINSLVSSIVSGANVSAVLLAQTLVNILQILIDANVFA
notes: Apisimin, serine-valine-rich peptide of the honeybee; mature protein without N-terminal signal peptide; modelled residues 37-77 (protomer C) and 36-78 (protomer D); source: co-purified with the native MRJP1 oligomer from royal jelly
**Q.** Does B1 bind [6]?
**A.** binds

**Q.** Does B1 bind ([4]; both partners purified)?
**A.** binds
